The chains are these.
T1: sGP 1-295aa (Ebola virus (ZEbov by the title of …, UniProt P60170 33-295))
T1 sequence: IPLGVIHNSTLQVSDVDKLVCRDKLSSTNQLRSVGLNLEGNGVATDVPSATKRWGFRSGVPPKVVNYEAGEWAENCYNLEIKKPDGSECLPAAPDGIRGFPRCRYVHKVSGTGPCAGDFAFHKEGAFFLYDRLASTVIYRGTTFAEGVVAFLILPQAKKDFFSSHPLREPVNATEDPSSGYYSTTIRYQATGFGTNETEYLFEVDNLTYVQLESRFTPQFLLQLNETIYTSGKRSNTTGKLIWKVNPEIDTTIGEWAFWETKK

T2: Mucin domain 333-458aa (Ebola virus (ZEbov by the title of …, UniProt Q05320 333-458))
T2 sequence: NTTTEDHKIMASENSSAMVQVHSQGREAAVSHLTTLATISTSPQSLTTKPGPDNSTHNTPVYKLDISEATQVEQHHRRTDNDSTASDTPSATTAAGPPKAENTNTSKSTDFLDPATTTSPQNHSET

T3: GP1 1-501aa (Ebola virus (ZEbov by the title of …, UniProt Q05320 33-501))
T3 sequence: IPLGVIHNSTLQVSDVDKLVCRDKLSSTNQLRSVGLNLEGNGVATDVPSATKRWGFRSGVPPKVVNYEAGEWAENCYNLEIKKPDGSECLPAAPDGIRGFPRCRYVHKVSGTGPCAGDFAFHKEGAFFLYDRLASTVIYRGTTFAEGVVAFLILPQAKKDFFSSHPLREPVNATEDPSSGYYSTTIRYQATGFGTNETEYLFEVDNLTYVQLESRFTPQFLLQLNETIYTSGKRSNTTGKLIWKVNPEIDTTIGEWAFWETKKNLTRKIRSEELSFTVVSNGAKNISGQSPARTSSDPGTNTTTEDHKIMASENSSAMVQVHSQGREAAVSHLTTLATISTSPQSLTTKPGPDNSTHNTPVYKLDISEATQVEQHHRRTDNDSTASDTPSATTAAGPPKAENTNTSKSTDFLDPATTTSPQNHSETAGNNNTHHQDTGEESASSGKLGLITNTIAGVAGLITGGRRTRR

B1: monoclonal antibody 5D2 (antibody, V domains shown)
VH: GPGLVRPSQSLSLTCTVTGYSITSDYAWNWIRQFPGNKLEWLGYITNTGSTGFNPSLKSRISITRDTSKNQFFLQLISVTTEDTATYHCARGLAYWGQGTLVTVSA
VL: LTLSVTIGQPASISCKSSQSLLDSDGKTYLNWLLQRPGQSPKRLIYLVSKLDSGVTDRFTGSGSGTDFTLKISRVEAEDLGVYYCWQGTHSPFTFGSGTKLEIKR
B2: monoclonal antibody 7G4 (antibody, V domains shown)
VH: GGGLVQPGGSLRLSCATSGFTFTDHYMGWVRQPPGKALEWLAFVRYKAKGYTTEYTASVKGRFTISRDNSQSILYLQMNTLRTEDSATYYCARDRGGYVGAMDYWGQGTSVTVSS
VL: LSLPVSLGDQASISCRSSQSLVHRNGNTYFHWYLQKPGQSPKLLIYKVSNRFSGVPDRFSGSGSGTDFTLKISRVEAEDLGVYFCSQSTHVPYTFGGGTKLEIKR
B3: monoclonal antibody 4G7 (antibody, V domains shown)
VH: GPELEMPGASVKISCKASGSSFTGFSMNWVKQSNGKSLEWIGNIDTYYGGTTYNQKFKGKATLTVDKSSSTAYMQLKSLTSEDSAVYYCARSAYYGSTFAYWGQGTLVTVSA
VL: ASLSASVGETVTITCRASENIYSYLAWYQQKQGKSPQLLVYNAKTLIEGVPSRFSGSGSGTQFSLKINSLQPEDFGSYFCQHHFGTPFTFGSGTELEIKR
B4: monoclonal antibody 5E6 (antibody, V domains shown)
VH: GGGLVKPGGSLKLSCAASGSAFSRYDMSWVRQTPEKRLEWVAYISRGGGFIYYPDTVKGRFTISRDNAKNTLYLQMSSLKSDDTAMYYCARHVYYGSSPLYAMDYWGQGTSVTVSS
VL: SASFSLGASAKLTCTLSSQHSTFTIEWYQQQPLKPPKYVMELKKDGSHSTGDGIPDRFSGSSSGADRYLSISNIQPEDEAIYICGVGDTINEQFVYVFGGGTKVTVLG
B5: monoclonal antibody 7C9 (antibody, V domains shown)
VH: GAELVKPGASVKLSCTASGFNIKDTYMHWVKERPDKGLEWIGRIDPANGNTKCDSRFQGKATITADTSSNTAYLQLSSLTSEDTAVYYCARRIYFGKGFDFWGQGTTLTVSS
VL: SSLSVSAGEKVTMSCKSSQSLFNSGDQKNYLAWYQQKPGQPPKLLIYGASTRESGVPDRFTGSGSGTDFTLTISSVQAEDLAVYYCQNDQFYPPTFGDGTKLDLKR
B6: monoclonal antibody 2G4 (antibody, V domains shown)
VH: GGGLMQPGGSMKLSCVASGFTFSNYWMNWVRQSPEKGLEWVAEIRLKSNNYATHYAESVKGRFTISRDDSKRSVYLQMNTLRAEDTGIYYCTRGNGNYRAMDYWGQGTSVTVSS
VL: ASLSVSVGETVSITCRASENIYSSLAWYQQKQGKSPQLLVYSATILADGVPSRFSGSGSGTQYSLKINSLQSEDFGTYYCQHFWGTPYTFGGGTKLEIKR
B7: monoclonal antibody 10C8 (antibody, V domains shown)
VH: GAELVRSGASVKLSCTSSGFNIKDYFLHWVKQRPEQGLEWIGWIDPENGDTEYAPKFQDKATMTADTSSNTAYLHLSSLTSEDTGVYYCNADGNYGKNYWGQGTTLTVSS
VL: LSLPVSLGDQASISCRSSQSLVHSNGNTFLHWYLQKPGQSPKLLIYRVSNRFSGVPDRFSGSGSGTDFTLKISRVEAEDLGVYFCSQSTHVPPYTFGGGTKLEIKR
B8: monoclonal antibody 1H3 (antibody, V domains shown)
VH: GAELVKPGASVKLSCTASGFNIKDTYIHWVKQGPEQGLEWIGRIDPANGNTKYDPKFQGKATITADTSSNTAYLQLSGLTSEDTAVYYCARESRISTMLTTGYFDYWGQGTTLTVSS
VL: AIMSASPGEKVTMTCSASSSVSYMYWYQQKPGSSPRLLIYDTSNLASGVPVRFSGSGSGTSYSLTISRMEAEDAATYYCQQWSSYPYTFGGGTKLEIKR

One assay addresses T1, sGP 1-295aa. The assay is described as follows: ELISA, antigen coated 0.3 µg/well, serial dilutions of MAb.
Consider B1, for which the binding result was “no binding (tested: Cut off was 2X background)”.
For B2, the binding result is recorded as “no binding (tested: Cut off was 2X background)”.
Same read-out and setting: under B3 stands “no binding (tested: Cut off was 2X background)”; under B4, “no binding (tested: Cut off was 2X background)”; under B5, “no binding (tested: Cut off was 2X background)”.
Consider B6, for which the binding result was “no binding (tested: Cut off was 2X background)”.
Turning to B7, the binding result is on record as “no binding (tested: Cut off was 2X background)”.

In a further assay the target is T2, Mucin domain 333-458aa. Described as above.
Consider B3, for which the binding result is reported as “no binding (tested: Cut off was 2X background)”.
B8: the binding result is recorded as “no binding (tested: Cut off was 2X background)”.
Regarding B6, the binding result is “no binding (tested: Cut off was 2X background)”.

A further assay concerns the target T3, GP1 1-501aa. The description is as above.
Take B6: the binding result is recorded as “no binding (tested: Cut off was 2X background)”.
